# T1: MtuSSB (Mycobacterium tuberculosis, UniProt P9WGD5)
# T1 sequence: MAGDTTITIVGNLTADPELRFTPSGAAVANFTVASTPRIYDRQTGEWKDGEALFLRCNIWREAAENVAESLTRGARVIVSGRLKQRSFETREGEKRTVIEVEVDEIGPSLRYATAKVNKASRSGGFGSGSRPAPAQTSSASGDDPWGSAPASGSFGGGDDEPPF
# B1: 79 mer ssDNA (ssDNA)
# DNA: GCACTAGTGCGGATAGCCCCGTGTTGTTGTCTGACCCCCGACCCCGACGGCAATGCGGGGCAATCCCCTGGAGGCCTGC
# Molecular target: T1, MtuSSB
# Experiment: EMSA; 20 mM Tris-HCl pH 8.0, 50 mM NaCl, 5% glycerol, 50 μg/ml BSA, 15 μl, 30 min at 4°C; […]
# Conditions: protein: recombinant; chain copies: 4; label: 5' 32P; single strand
binder,measurement,value
B1,binding result,binds

# Reference: publication PMC3983218
